Laboratory results taken from US11464867B2, “Multimeric elastin-like polypeptides” (University of Southern California, priority 2018, dated 2022).
Where “and” joins values, the source holds several entries; their conditions need not be identical. Equal values may be shown once. Entries after “also recorded” stand apart in the source; their conditions may differ.

How the values were obtained:
[1] = cited from earlier work
Pin1 = Pin1 (Homo sapiens, UniProt Q13526); settings: cited from earlier work
BT-474 orthotopic tumors = test: Orthotopic BT-474 tumors in nude mice; assay type: in vivo; settings: 1 mg/kg every other day for 4 weeks
From the text: FIGS. 25A-25B: show results of administration of FAF formulations when tested for efficacy and safety in nude mice bearing orthotopic tumors of BT-474 cell line. Oral Eve at the same drug dose served as a clinically relevant control.
Accounting for nearly 40,000 deaths per year, breast cancer is the second deadliest cancer affecting American women. Everolimus (Eve), an analog of Rapamycin is approved to treat HR+/HER2− subtype in combination with exemestane. Currently administered as an oral formulation, Eve suffers from poor physico-chemical properties and toxicity issues like Rapamycin. Novel FAF formulations were tested for efficacy and safety in nude mice bearing orthotopic tumors of BT-474 cell line. Being a HR+ cell line, BT-474 represents nearly 80% of clinically diagnosed breast cancer. Oral Eve at the same drug dose served as a clinically relevant control. […] This is presumably a result of Eve's poor oral bioavailability.

[2] = tested on: HR+/HER2− breast cancer patients; settings: in combination with exemestane; cited from earlier work
male NOD mice = test: Lymphocytic infiltration of the lacrimal gland in male NOD mice (Sjögren's syndrome model); assay type: in vivo; settings: SC 1.0 mg Rapa/kg every other day for 2 weeks
Experimental: FIGS. 23A-23C: FAF-Rapa reduces lymphocytic infiltration in the LG of male NOD mice, FIG. 23A: identity, purity and fluorescence of FAF, FAF-Rapa and rhodamine-labeled FAF-Rapa (Rho-FAF-Rapa) were analyzed by Comassie blue staining and fluorescence imaging of SDS-PAGE. FIG. 23B: One LG from each mouse was collected at the conclusion of the study. Sections from 25th, 50th and 75th percentile sections from each LG were quantified by a blinded observer to determine the average percentage area of infiltrate per gland. Glands from 4 treatment groups (n=15) were compared. Inflamed LG show areas of purple nuclear staining, which indicate foci of infiltrating lymphocytes (outlined in blue). Severe lymphocytic infiltration was reduced by FAF-Rapa (middle panel). Scale bar represents 200 μm. FIG. 23C: The percent area of infiltration was calculated using ImageJ (mean±SD). A Kruskal-Wallis non-parametric test was used to compare groups.
SS is a chronic autoimmune disease that affects about 4 million people in the US. Lymphocytic infiltration and inflammation in the exocrine glands, mainly lacrimal gland (LG) and salivary gland causes severe forms of dry eyes and dry mouth. […] Following this, the LG from all mice were sectioned, stained and lymphocytic infiltration was quantified.

[3] = Phase transition temperature by optical density (UV-Vis, 350 nm) versus temperature; assay type: physicochemical
Experimental: The temperature with the maximum positive slope was defined as the phase transition temperature for each condition. (FIG. 2B) The concentration-temperature phase diagram was determined for both ELPs, and fit to the following equation: Tt=b−m Log10[CELP].
Both ELPs at different concentrations (5 μM to 100 μM) were subject to a precisely controlled temperature increase from 25 to 75° C. at a rate of 1° C./min. The Tt of ELPs is defined as the temperature at which the first derivative of the optical density with respect to the temperature reaches a maximum.

[4] = CsA encapsulation by two-phase solvent evaporation, RP-HPLC; assay type: physicochemical; settings: in words
Experimental: The mixture was incubated at 37° C. and samples were collected at different time points up to 48 h.
This was followed by high-speed centrifugation and filtration to remove the excess insoluble drug. […] The mobile phase flow rate was set to 1.0 ml/min. The linear gradient from 20% to 95% of methanol was applied from 0 to 5 min. Then the mobile phase was changed to 95% methanol isocratic flow for 10 min.
This was followed by high-speed centrifugation and filtration to remove the excess insoluble drug. The loading ratio was then determined by reversed-phase high-performance liquid chromatography (RP-HPLC) analysis method.
The drug loading capability of 2nd and 3rd generation carriers were also tested using the same encapsulation method detailed above employing the method of Shi, et al., 2013.

human albumin = human albumin (Homo sapiens, UniProt P02768); test: Competition of CsA-loaded CA192 against human albumin (1 mM, 37° C.); assay type: in vitro ADME; settings: 48 h
Experimental: Per molecule of protein, CA192 (SEQ ID NO: 3) binds 10× more drug than albumin. […] The mixture was incubated at 37° C. and samples were collected at different time points up to 48 h. The ELP phase separation was induced to purify CA192 (SEQ ID NO: 3) from the mixture with Albumin, which was—followed by RP-HPLC analysis. (FIG. 4C) Instead of albumin, lipoproteins in the plasma, mainly high-(HDL) and low-(LDL) density lipoprotein, predominantly bind to cyclosporine in the plasma. Thus, CA192-CsA was also tested against mouse plasma over a period of 48 hr.
Samples were collected from the dialysis cassette at different time points between 0 and 192 h and analyzed by RP-HPLC. […] The same drug release experiment was performed using CA192 dimer obtained via SEC. Dialysis was performed against PBS at 37° C. (FIG. 3B) and 4° C. (FIG. 3C). To further validate the release profile, as a control group, with the same encapsulation method, human albumin was explored to load CsA. […] The mixture was incubated at 37° C. and samples were collected at different time points up to 48 h. Another round of […] was performed to purify CA192 from the mixture, followed by RP-HPLC analysis. […] Similar to this competition method against albumin, 300 μM CA192-CsA in PBS was diluted 1:1 in mouse plasma to achieve a final concentration of 150 μM. […]

[5] = Dynamic light scattering (DLS) hydrodynamic radius and stability; assay type: physicochemical
Experimental: FIGS. 5A-5D: CA192 (SEQ ID NO: 3) has a good stability in terms of hydrodynamic radius. There are two fractions present in the CA192 (SEQ ID NO: 3) solution: an aggregated form and dimeric form. A dimerized form has similar hydrodynamic radius, Rh as A192. […] Drug-loaded CA192 (SEQ ID NO: 3) has a mean Rh of 64.5±0.5 nm (p<0.05). […] (FIG. 5C) Size Exclusion Chromatography (SEC) was conducted to fractionate CA192 (SEQ ID NO: 3) depending on their particle size. Two fractions were observed. […] In contrast, the fraction 1 contains a mixture of larger aggregates.
The hydrodynamic radius (Rh) of both the loaded and unloaded fusion protein, along with plain A192, was measured via dynamic light scattering (DLS) using a DynaPro Plate Reader II from Wyatt Technology. Before the DLS measurement, solutions were filtered through […] pore size filters. The concentration of each solution was then adjusted to 20 μM. 60 μL from each sample was pipetted into three different wells on the plate reader and covered by 15 μL mineral oil each to avoid solvent evaporation. Centrifugation was then performed to remove air bubbles. […] Based on this DLS method, Applicants performed a stability assay to explore the stability of the fusion protein by measuring the mean Rh shift during incubation at physiological temperature. Briefly, the fusion solution was incubated at 37° C. for different periods of time up to 48 h and the mean Rh of CA192 at these different time points was measured with DLS. […] There might be some slight aggregation occurring in the CA192 protein solution. […] To determine if this was the case, further separation was conducted with size exclusion chromatography (SEC). This process was performed at 4° C. using a Hiload 26/600 column (26×600 mm, particle size 24-44 μM). […] Fragments with absorption above 10 mAu were collected and concentrated with a Spin-X concentrator (pore size 10 kDa). […] (FIG. 5D) Through measuring the CA192 concentration of both fractions, Applicants determined that 20.8% by mass in solution is represented by the multimerized particles. […]

[6] = SEC / Multi-Angle Static Light Scattering (MALS) of CA192 fractions; assay type: physicochemical
Experimental: The hydrodynamic radius (Rh) of both the loaded and unloaded fusion protein, along with plain A192, was measured via dynamic light scattering (DLS) using a DynaPro Plate Reader II from Wyatt Technology. Before the DLS measurement, solutions were filtered through […] pore size filters. The concentration of each solution was then adjusted to 20 μM. 60 μL from each sample was pipetted into three different wells on the plate reader and covered by 15 μL mineral oil each to avoid solvent evaporation. Centrifugation was then performed to remove air bubbles. […] Based on this DLS method, Applicants performed a stability assay to explore the stability of the fusion protein by measuring the mean Rh shift during incubation at physiological temperature. Briefly, the fusion solution was incubated at 37° C. for different periods of time up to 48 h and the mean Rh of CA192 at these different time points was measured with DLS. […] There might be some slight aggregation occurring in the CA192 protein solution. […] To determine if this was the case, further separation was conducted with size exclusion chromatography (SEC). This process was performed at 4° C. using a Hiload 26/600 column (26×600 mm, particle size 24-44 μM). […] Fragments with absorption above 10 mAu were collected and concentrated with a Spin-X concentrator (pore size 10 kDa). Two fractions were observed after SEC separation (FIG. 5C). […] (FIG. 5D) Through measuring the CA192 concentration of both fractions, Applicants determined that 20.8% by mass in solution is represented by the multimerized particles. Multi-Angle static Light Scattering (MALS) was then applied to evaluate the aggregation and oligomeric state of CA192. […] Thus, it was concluded that the CA192 fusion protein is mostly maintained as dimerized nanoparticles with a 6.5 nm hydrodynamic radius.
To further evaluate the aggregation and oligomeric state of each fraction, Multi-Angle Static Light Scattering (MALS) was then used to measure the molecular weight of both peaks. […] Similarly, fraction 1 was identified as aggregated form. […]

HeLa cells = test: HeLa cell uptake, co-localization with lysosomes (confocal microscopy); assay type: cell-based; settings: 30 μM rhodamine-labeled ELP; 120 min; LysoTracker Green
Experimental: Lysosomes were labeled by LysoTracker Green® having the structure:
In order to further validate the potential efficacy of CA192 working as a potent drug binding domain, an in vitro cell uptake study was performed. Briefly, CA192 and A192 was labeled with rhodamine and HeLa cell lysosome with LysoTracker Green (LTG)® having the structure as described herein. For the treatment group, HeLa cells were incubated with 30 μM of rhodamine-labeled (rh)-CA192 and 70 nM of LTG for 120 min. For the control group, HeLa cells were incubated with 30 μM of rhodamine-labeled (rh)-A192 and 70 nM of LTG for 120 min. Cells were then rinsed with warm HBSS three times, maintained in the fresh culture medium, and imaged by confocal microscopy. Images were acquired using a Zeiss laser scanning microscope 510 Meta NLO confocal imaging system equipped with Argon, red HeNe, green HeNe laser, and a Coherent Chameleon Ti-Sapphire laser (LSM) mounted on a vibration-free table (Carl Zeiss, Thornwood, N.Y.). All images were acquired using a Plan-Apochromat 63× Oil immersion lens with a working distance of 0.19 mm.

MDA-MB-468 cells = test: Split luciferase reporter for cytosolic Rapa; assay type: cell-based
From the text: FIGS. 22A-22B: FAF delays the access of Rapa to the cytosol in a manner consistent with macropinocytosis. FIG. 22A: MDA-VB-468 cells were transfected with a split luciferase reporter that enables the specific detection of Rapa within the cytosol. […] Free Rapa luminescence kinetics were unaffected by amiloride. (Mean±95% CI, n=6).
To understand drug release, cells were engineered to express a luciferase reporter for cytosolic Rapamycin. […] This is evidence that FAF dominates the intracellular delivery of rapalogues.

MDA-MB-468 cell line = test: Cellular uptake of FAF; assay type: cell-based; settings: concentrations up to 100 μM

Pin1, sequence (Q13526 whole entry): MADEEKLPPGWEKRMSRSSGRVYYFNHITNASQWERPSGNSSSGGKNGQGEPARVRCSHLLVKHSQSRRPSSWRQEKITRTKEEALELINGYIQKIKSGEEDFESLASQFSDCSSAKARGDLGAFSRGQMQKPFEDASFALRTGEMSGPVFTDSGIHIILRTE

In the case of CC1=C(/C=C/C(C)=C/C=C/C(C)=C/C(=O)O)C(C)(C)CCC1 [ATRA, All trans retinoic acid], the “AUC on 28th day of administration relative to AUC on day 1” value ([1]; daily treatment) is given as 10%, the half-life ([1]; in vivo) is given as 0.75 h and the “affinity to Pin1” value (Pin1) is given as “sun-micromolar affinity”.
For CO[C@H]1C[C@@H]2CC[C@@H](C)[C@@](O)(O2)C(=O)C(=O)N2CCCC[C@H]2C(=O)O[C@H]([C@H](C)C[C@@H]2CC[C@@H](OCCO)[C@H](OC)C2)CC(=O)[C@H](C)/C=C(\C)[C@@H](O)[C@@H](OC)C(=O)[C@H](C)C[C@H](C)/C=C/C=C/C=C/1C [Eve, Everolimus], the “tumor growth compared to PBS treated mice” value (BT-474 orthotopic tumors) is given as “not statistically significant”, the “patients with adverse events necessitating discontinuation of treatment” value [2] is given as 10 % of patients and the “patients with adverse events necessitating dose reduction” value [2] is given as 75 % of patients.
With CO[C@H]1C[C@@H]2CC[C@@H](C)[C@@](O)(O2)C(=O)C(=O)N2CCCC[C@H]2C(=O)O[C@H]([C@H](C)C[C@@H]2CC[C@@H](O)[C@H](OC)C2)CC(=O)[C@H](C)/C=C(\C)[C@@H](O)[C@@H](OC)C(=O)[C@H](C)C[C@H](C)/C=C/C=C/C=C/1C [Rapa, Rapamycin] the “suppression of lymphocytic infiltration compared to vehicle” value (male NOD mice) was 2.7 fold.
With “CA192: cyclophilin A fused to ELP A192, SEQ ID NO: 3” the “Transition temperature (Tt)” value ([3]; at 25 μM, 1° C./min) was 45.4 °C, the “Slope, m” value ([3]; fit Tt = b - m Log10[CELP], mean ± 95% CI, Table 2) was 1.3 ° C./Log10(μM) and 1.3 ± 0.27 ° C./Log10(μM) and the “Intercept, b” value ([3]; intercept at 1 μM, mean ± 95% CI, Table 2) was 47.1 °C and 47.1 ± 0.39 °C. For the same compound, the “CsA loading compared with a comparator” value [4] was “significantly more drug than albumin”, the “transfer of CsA from CA192 to albumin” value (human albumin) was “No significant drug loss; also recorded: unable to extract CsA” and the “stability of Rh” value ([5]; 37° C., up to 48 h) was “well maintained throughout 48 h; also recorded: no significant hydrodynamic radius shift; also recorded: stability over 2 days”. The “mean hydrodynamic radius (Rh)” value ([5]; DLS intensity, 20 μM) was 64.8±0.7 nm, the “Mass Fraction, Fraction 1 (Nano-aggregated form)” value ([6]; MALS) was 10.1% and the “Mass Fraction, Fraction 2 (Dimeric form)” value ([6]; MALS) was 89.9%. For the same compound, the “multimerized particles in solution” value ([6]; from CA192 concentration of both SEC fractions) was 20.8 % by mass and the co-localization with lysosomes (HeLa cells) was “obvious co-localization with lysosome; also recorded: co-localized with lysosomes; also recorded: co-localizing with lysosomes”.
For “FAF: FKBP fused to each terminus of ELP A192, SEQ ID NO: 25”, the “Transition temperature at 25 μM” value ([3]; 25 μM, Table 5) was 55.1 °C, the “delay of cytosolic access of Rapa versus free drug” value (MDA-MB-468 cells) was “about a half-hour” and the “effect of amiloride on cytosolic detection of Rapa” value (MDA-MB-468 cells; macropinocytosis inhibitor amiloride added) was “completely suppressed”. The “saturation of cellular uptake” value (MDA-MB-468 cell line) was “no dose-dependent saturation”, the MAT (SC, Non-compartment) was 9.6 h and the elimination half-life (mouse, in vivo, iv) was “about 7 hrs”. It also gave an MRT (mouse, in vivo, sc) of 20.3 h and a Tmax (mouse, in vivo, sc) of 12 h.
